The target in data set [1] is T1, DNA ligase III beta (LigIII) (Homo sapiens, UniProt P49916-4 1-862).
T1 sequence: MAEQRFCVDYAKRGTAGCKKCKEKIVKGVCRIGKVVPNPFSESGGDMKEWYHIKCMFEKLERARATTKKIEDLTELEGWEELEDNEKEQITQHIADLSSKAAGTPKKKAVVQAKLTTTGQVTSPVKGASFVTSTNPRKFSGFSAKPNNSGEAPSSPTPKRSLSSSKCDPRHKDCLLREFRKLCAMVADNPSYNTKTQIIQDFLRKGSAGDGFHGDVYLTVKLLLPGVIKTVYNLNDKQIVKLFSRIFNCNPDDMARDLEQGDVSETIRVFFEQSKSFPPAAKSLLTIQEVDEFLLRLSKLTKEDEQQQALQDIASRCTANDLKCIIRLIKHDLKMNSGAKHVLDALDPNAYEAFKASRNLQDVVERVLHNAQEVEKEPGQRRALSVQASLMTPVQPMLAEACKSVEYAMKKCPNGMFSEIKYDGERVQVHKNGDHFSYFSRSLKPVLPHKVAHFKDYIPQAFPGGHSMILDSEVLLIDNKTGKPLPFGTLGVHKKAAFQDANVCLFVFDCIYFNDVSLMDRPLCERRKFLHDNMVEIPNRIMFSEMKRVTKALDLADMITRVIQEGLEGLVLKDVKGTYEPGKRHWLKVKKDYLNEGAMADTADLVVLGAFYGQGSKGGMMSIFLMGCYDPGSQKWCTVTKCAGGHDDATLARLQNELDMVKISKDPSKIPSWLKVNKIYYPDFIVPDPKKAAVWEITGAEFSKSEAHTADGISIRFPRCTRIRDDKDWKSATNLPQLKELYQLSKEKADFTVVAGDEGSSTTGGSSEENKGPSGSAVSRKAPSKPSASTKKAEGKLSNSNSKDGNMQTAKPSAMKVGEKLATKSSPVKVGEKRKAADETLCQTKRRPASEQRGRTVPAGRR
The experiment in a line: TR-FRET; DNA bridging; 5 mM Mg2+, 1 mM ATP; 50 mM HEPES-NaOH pH 7.5, 80 mM NaCl, 5 mM MgCl2, 1 mM DTT, 1 mM ATP, 50 ug/ml BSA; anisotropy 25 C (25 nM DNA), TR-FRET room temperature, pull-down 4 C. As to conditions: protein: recombinant; tags: N-terminal His (pQE32); label: 5'-biotin on S1; 5'-FITC on S3; two blunt duplexes. (In general: Time-resolved FRET reads energy transfer from a long-lived donor to a nearby acceptor.)

The target in data set [2] is T1, DNA ligase III beta (LigIII). The experiment in a line: fluorescence anisotropy; stoichiometric titration, 1 LigIII : 2 DNA; 50 mM HEPES-NaOH pH 7.5, 80 mM NaCl, 5 mM MgCl2, 1 mM DTT, 1 mM ATP, 50 ug/ml BSA; anisotropy 25 C (25 nM DNA), TR-FRET room temperature, pull-down 4 C. As to conditions: protein: recombinant; tags: N-terminal His (pQE32); label: 5'-FITC on strand 1; blunt.

The text below walks through data of PMC4538836, “Human DNA ligase III bridges two DNA ends to promote specific intermolecular DNA end joining”.

B1: bridged pair, blunt ends (dsDNA)
DNA 1: AGTGAATTCGAGCTCG
DNA 2: CGAGCTCGAATTCACT
DNA 3: CATGATTACGG
DNA 4: CCGTAATCATG
Turning to B1, the binding result in data set [1] is listed as “binds”.

B2: FITC blunt duplex (dsDNA)
DNA 1: CATGATTACGG
DNA 2: CCGTAATCATG
For the molecule B2, the binding result in data set [2] was “binds”.
